Source: patent publication US20260104424A1, “METHODS, SYSTEMS AND KITS FOR IDENTIFYING BIOACTIVE COMPOUNDS AND THERAPEUTIC METHODS AND COMPOSITIONS” (priority 2022, published 2026)
“Also recorded” adds a separate entry of the source.

Key:
CXCR2 = biological target: T1, CXCR2 (Homo sapiens, UniProt P25025); assay: M13 phage binding and screening against HEK293T cells overexpressing CXCR2; settings: negative control protein on M13 phage
T1 sequence (P25025 1-360): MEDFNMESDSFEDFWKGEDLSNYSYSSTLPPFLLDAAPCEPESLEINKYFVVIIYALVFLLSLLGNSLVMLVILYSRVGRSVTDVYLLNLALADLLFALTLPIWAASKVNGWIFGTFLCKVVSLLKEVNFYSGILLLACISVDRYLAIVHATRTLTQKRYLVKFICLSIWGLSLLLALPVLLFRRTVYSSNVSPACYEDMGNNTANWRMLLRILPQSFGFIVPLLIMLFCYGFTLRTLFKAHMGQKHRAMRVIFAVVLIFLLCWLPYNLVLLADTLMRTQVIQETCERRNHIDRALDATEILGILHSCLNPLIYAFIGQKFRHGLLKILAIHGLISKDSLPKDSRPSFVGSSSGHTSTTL

EGFR = biological target: T2, EGFR (Homo sapiens, UniProt P00533); assay: Single-round M13 phage library screening against EGFR (Ig-EGFR beads, HEK293T cells overexpressing EGFR); type: binding; settings: for identification as hit in screen against Ig-EGFR: AT, MV and secretome libraries, versus Isotype Ig, triplicate; for identification as hit in secretome library screen: beads coated with Ig-EGFR and HEK293T cells overexpressing EGFR
T2 construct: representing the extracellular domain of the target receptor fuse to the Fc region of immunoglobulin G; purchased R&D Systems 344-ER
Description: For the phage immunoprecipitation-based ligand discovery, 1 μg of EGFR-Fc (R&D Systems Cat No. 344-ER) and Etanercept (Mippipore Sigma Cat No. 185243-69-0) chimera proteins, representing the extracellular domain of the target receptor fuse to the Fc region of immunoglobulin G, was incubated with the pre-blocked phage library overnight at 4° C. The following day, 20 μL of protein G beads (ThermoFisher Cat No. 10009D) were added to the phage-chimera mixture and rotated for 4 hours at 4° C. to immunocapture (IP) all chimeras. The beads were then washed three times with PBS containing 0.01% NP-40 and stored in −80° C. before sequencing.

MrgprX4 = biological target: T3, MrgprX4 (Homo sapiens, UniProt Q96LA9); assay: MrgprX4 calcium signaling assay; type: cell-based; parameters: activation of MrgprX4 (agonist activity): dose or concentration left out as unconfirmed
T3 construct: GFP; expressed in transfected cells; host or cells: HEK293-MrgprX4-GFP
T3 sequence (Q96LA9 whole entry): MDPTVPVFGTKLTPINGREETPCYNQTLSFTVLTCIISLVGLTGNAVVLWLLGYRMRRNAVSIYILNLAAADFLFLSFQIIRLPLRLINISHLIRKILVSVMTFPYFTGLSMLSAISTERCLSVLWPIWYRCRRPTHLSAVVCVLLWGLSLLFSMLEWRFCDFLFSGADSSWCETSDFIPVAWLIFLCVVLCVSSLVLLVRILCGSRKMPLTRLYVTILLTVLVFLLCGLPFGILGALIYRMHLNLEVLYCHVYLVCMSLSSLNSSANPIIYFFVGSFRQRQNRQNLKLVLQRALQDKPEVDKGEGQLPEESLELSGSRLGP
Description: The HEK293-MrgprX4-GFP and HEK293 cell lines were dissociated with 0.25% Trypsin (Gibco, Cat No. 25200-056) and collected after 1-2 minutes incubation. The harvested cells were then seeded at a density of 2.5E+04 cells/well in a 96-well half-area flat clear bottom black plate (Greiner Bio-One, Cat No. 675090) that was pre-treated with 0.1 mg/ml poly-D-lysine. The following day, cells were stained with FLIPR Calcium 5 dye (Molecular Devices, Cat No. R8186) in a loading buffer composed of Hanks' balanced salt solution (HBSS) with 20 mM HEPES, adjusted to pH 7.4. After a 30-minute incubation period at 37° C., TFPI (Acro Biosystems Cat No. TFI-H5226) was introduced, and the cells were incubated for an additional hour at 37° C. Subsequently, UDCA or the buffer control were automatically dispensed into the wells, which were immediately imaged using the Flexstation 3 system (Molecular Devices).

Question: “$-Lactoglobulin: negative control protein displayed on phage in the CXCR2 binding test” was tested. Which “non-specific binding to HEK293T-CXCR2 cells” value (CXCR2) did it give?
Answer: low non-specific binding

Question: Which “identification as hit in screen against Ig-EGFR” value (“identification as hit in screen” below) (EGFR) does the source give for betacellulin [BTC] here?
Answer: rediscovered; also recorded: identified

Question: And the “identification as hit in secretome library screen” value (EGFR)?
Answer: robustly identified

Question: What does the source list for “heparin binding EGF-like growth factor [HBEGF]”?
Answer: identification as hit in screen against Ig-EGFR (EGFR): rediscovered; identification as hit in screen against Ig-EGFR (EGFR; listed as HB-EGF): identified; identification as hit in secretome library screen (EGFR): robustly identified

Question: How did the “inhibitory activity on MrgprX4” value (MrgprX4; negative control protein, 1 uM (n=4)) turn out when “osteoprotegerin [OPG, reference compound]” was run?
Answer: no obvious inhibitory activity

Question: For tissue factor pathway inhibitor [TFPI], which “activation of MrgprX4 (agonist activity)” value (MrgprX4) is on record?
Answer: does not activate

Question: And the “inhibition of activation by UDCA” value (MrgprX4; UDCA (EC80), TFPI at 1 and 0.3 uM, n=7)?
Answer: inhibiting the activation of UDCA

Question: What about the “concentrations down to which UDCA-induced activation of MrgprX4 was effectively inhibited” value (MrgprX4; calcium-signaling assay) of the same substance?
Answer: 0.3 µM

Question: What about the “concentration at which MrgprX4 activation was inhibited” value (MrgprX4; in the presence of the MrgprX4 activator UDCA) of the same substance?
Answer: 300 nM

Question: For transforming growth factor-A [TGFA], which “identification as hit in screen” value (EGFR) is on record?
Answer: rediscovered

Question: And the “identification as hit in screen” value (EGFR; listed as TGFa)?
Answer: identified

Question: And the “identification as hit in secretome library screen” value (EGFR)?
Answer: robustly identified
